Experimental data as given in US8455427B2, “Methods of modifying insulin signaling using biliverdin reductase” (University of Rochester, priority 2005, dated 2013).

Columns and labels:
BVR in 293A cells [1] = assay: BVR reductase activity in insulin-treated 293A cells; type: cell-based, human; settings: insulin 50 nM
Experimental: (§1) Cell culture and transfection and infection of 293A: 293A cells were grown in 10 cm-plates with Dulbecco's Modified Eagle Medium (DMEM) (Invitrogen, Carlsbad, Calif.) containing 10% fetal bovine serum and 1% penicillin-G/streptomycin for 24 h or until a confluency of 70% was reached. Cells were subsequently transfected with 4 μg of pcDNA3 mutant BVR Y^198 using Transfectin Lipid Reagent (Bio-Rad, Hercules, Calif.), according to the manufacturer's procedure and incubated for 48 h at 37° C. In addition, non-transfected cells were infected with pSuper-Retro-siBVR for 24 h in the presence of 4 μg/ml polybrene. Cells were starved in serum-free DMEM 16 h prior to insulin treatment (50 nM).
(§2) Measurement of BVR Reductase Activity: 293A cells treated with insulin were lysed in buffer containing a protease inhibitor cocktail and phosphatase inhibitors (10 mM NaF, […]). BVR activity was measured at pH 6.7 using NADH as the cofactor as described previously (Huang et al., J. Biol. Chem. 264:7844-9 (1989), which is hereby incorporated by reference in its entirety). The rate of conversion of biliverdin to bilirubin was determined as the increase in absorbance at 450 nm at 25° C. Specific activity is expressed as μmol of bilirubin/min/mg of protein.

BVR in 293A cells [2] = assay: BVR tyrosine phosphorylation in insulin-treated 293A cells (immunoprecipitation and immunoblotting); type: cell-based, human; settings: within 8 min after insulin treatment
Experimental: as §1
Immunoprecipitation and immunoblotting: 293A Cells were plated in 10 cm plates and transfected with appropriate plasmids. Prior to collection, cells were washed twice with cold PBS and lysed in 300 μl cold modified RIPA buffer containing 50 mM Tris (pH7.4), 75 mM NaCl, 2 mM EDTA, 2 mM EGTA, 10 mM NaF, 1% Nonidet P-40, 0.5% sodium deoxycholate, 0.5% sodium vanadate, 1 mM PMSF, 10 μg/ml aprotinin, 1 mM benzamidine, 10 μg/ml leupeptine, and 10 μg/ml pepstatin. Cells sonicated (2×3 sec each) and centrifuged at 10,000×g for 15 min. Protein concentration was determined by Bradford assay (Bio-Rad, Hercules, Calif.). […]

[3] = molecular target: T1, insulin receptor tyrosine kinase (IRK) (Homo sapiens, UniProt P06213); assay: BVR phosphorylation by the insulin receptor tyrosine kinase (IRK), in vitro [32P]-ATP assay; type: biochemical; settings: for time course of phosphorylation by IRK: incubation with IRK up to 3-4 h, pH 8.0
T1 construct: the 48 kDa cytoplasmic domain of the β-subunit of IRK; purchased Biomol International (Plymouth, Pa.)
Experimental: BVR phosphoiylation by the insulin receptor tyrosine kinase (IRK): Phosphorylation of BVR by IRK was examined using GST-HBVR fusion protein and the 48 kDa cytoplasmic domain of the β-subunit of IRK. BVR (5 μg) was incubated in 50 μl of IRK kinase buffer containing 50 mM HEPES (pH 8.0), 20 mM MgCl2, 1 mM DTT in the presence of 0.05 μg IRK and 10 μM ATP labeled with 10 μCi [γ-^32P]-ATP. The reaction was started with the addition of labeled ATP and incubated for 2-4 h. Reactions were terminated by addition of Laemmli sample buffer and boiled for 3 min. Samples were subjected to 8% SDS-PAGE and transferred to PVDF membranes for autoradiography.

[4] = Reductase activity of purified BVR; type: biochemical, human; settings: purified BVR not phosphorylated by IRK
Experimental: as §2

human BVR = assay: BVR autophosphorylation; type: biochemical; settings: pH 8.4, 30 mM MnCl2, 2 h, 30° C.
Experimental: BVR autophosphorylation and kinase activity: To detect autophosphorylation of BVR, GST-hBVR of wild type (wt) and mutant variants were incubated in 50 mM HEPES buffer (pH 8.4) in the presence of 30 mM MnCl2 and 1 mM DTT for 2 h at 30° C. The reaction was started with the addition of 10 μM ATP labeled with 10 μCi [γ-^32P]-ATP and was stopped with the addition of Laemmli sample buffer. Samples were boiled for 3 min and applied to a 8% SDS-PAGE gels, transferred to a PVDF membrane, and then visualized by autoradiography. To measure kinase activity, GST-BVR (5 μg) was incubated in 50 μl kinase buffer containing 50 mM HEPES buffer (pH 8.4), 20 mM MgCl2, 30 mM MnCl2, 1 mM DTT and 10 μM ATP labeled with 10 μCi [γ-^32P]-ATP in the presence of 5 μg substrates: IRS-1 or Raytide or poly glu/tyr (4:1) for 2 h at 30° C. The reaction was started with the addition of ATP and terminated by adding 120 μl 10% H3PO4. 100 μl aliquots were directly transferred to P81 Whatman filters which were subsequently washed extensively in 0.75% phosphoric acid at room temperature. Finally, the filters were submerged in acetone for 5 min, dried, and retained counts were measured using a Beckman LS 6500 liquid scintillation counter (Beckman Coulter, Fullerton, Calif.).

293A cells = assay: Insulin-mediated glucose uptake (2-deoxy 1-[3H] glucose); type: cell-based, human; settings: insulin 15 min, vs controls infected with vector alone, p≦0.05
Experimental: as §1
Glucose uptake: Glucose uptake was assessed by measuring 2-deoxy 1-[^3H] glucose (2DG) absorption as described by (Braiman et al. (Mol. Endocrinol. 13:2002-12 (1999)), which is hereby incorporated by reference), with minor modifications. Briefly, after insulin treatment, cells in 6-wells plates were incubated in 1 ml PBS containing 5 mM glucose and 1 μCi/ml 2DG for 15 min. Solution was aspirated rapidly and wells were washed 3 times with cold PBS. Cells were solubilized by addition of 200 μl 1% (w/v) SDS. Radioactivity was measured and data was normalized to protein concentration. Non-specific uptake was determined in the presence of 200 mM of glucose and was subtracted from the total uptake. […]

T1 sequence (P06213 980-1382 limits assumed): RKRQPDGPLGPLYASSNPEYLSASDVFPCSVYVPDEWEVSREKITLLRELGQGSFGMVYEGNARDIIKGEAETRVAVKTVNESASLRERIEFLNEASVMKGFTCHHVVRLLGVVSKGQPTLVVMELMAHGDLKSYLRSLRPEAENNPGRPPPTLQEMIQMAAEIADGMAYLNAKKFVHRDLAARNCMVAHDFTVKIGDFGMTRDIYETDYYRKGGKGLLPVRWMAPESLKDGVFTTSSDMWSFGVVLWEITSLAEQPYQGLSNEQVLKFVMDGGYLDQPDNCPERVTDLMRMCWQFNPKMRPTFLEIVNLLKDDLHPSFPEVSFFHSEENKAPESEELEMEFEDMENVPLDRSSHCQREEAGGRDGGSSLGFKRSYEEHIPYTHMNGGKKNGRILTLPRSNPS

For “insulin: Human insulin purchased from Sigma-Aldrich”, the “increase in BVR reductase activity” value (BVR in 293A cells [1]; 1 h after treatment) was 2 fold, the “BVR reductase activity, later time” value (BVR in 293A cells [1]; 6 h after treatment) was “gradually returned to basal level” and the BVR tyrosine phosphorylation (BVR in 293A cells [2]) was “dramatic increase in phosphorylation”.

B1: biliverdin reductase (protein)
chain: MNAEPERKFGVVVVGVGRAGSVRMRDLRNPHPSSAFLNLIGFVSRRELGSIDGVQQISLEDALSSQEVEVAYICSESSSHEDYIRQFLNAGKHVLVEYPMTLSLAAAQELWELAEQKGKVLHEEHVELLMEEFAFLKKEVVGKDLLKGSLLFTSDPLEEDRFGFPAFSGISRLTWLVSLFGELSLVSATLEERKEDQYMKMTVCLETEKKSPLSWIEEKGPGLKRNRYLSFHFKSGSLENVPNVGVNKNIFLKDQNIFVQKLLGQFSEKELAAEKKRILHCLGLAEEIQKYCCSRK
modifications: left off: a dimerising Fc or GST
In the case of B1, the “time course of phosphorylation by IRK” value [3] is reported as “detected when assessed at 1 h, and gradually increased up to 4 h” and the “BVR reductase activity of the control” value [4] is reported as 43.8 μmol per min per mg.

B2: Y^198: human BVR point mutant, DQYMK to DQFMK (protein, UniProt P53004 3-296, looked up, variant Y198F)
Biliverdin reductase A: AEPERKFGVVVVGVGRAGSVRMRDLRNPHPSSAFLNLIGFVSRRELGSIDGVQQISLEDALSSQEVEVAYICSESSSHEDYIRQFLNAGKHVLVEYPMTLSLAAAQELWELAEQKGKVLHEEHVELLMEEFAFLKKEVVGKDLLKGSLLFTAGPLEEERFGFPAFSGISRLTWLVSLFGELSLVSATLEERKEDQFMKMTVCLETEKKSPLSWIEEKGPGLKRNRYLSFHFKSGSLENVPNVGVNKNIFLKDQNIFVQKLLGQFSEKELAAEKKRILHCLGLAEEIQKYCCSRK
For B2, the “time course of phosphorylation by IRK” value [3] was “less effective substrate for IRK”, the “decrease of BVR phosphorylation by IRK caused by point mutation” value ([3]; mutant vs wtBVR, IRK 2 h at 30° C.) was roughly 70% and the “autophosphorylation of BVR mutants” value (human BVR) was “did not result in significant changes in autophosphorylation of BVR”. For the same molecule, the insulin-mediated glucose uptake (293A cells) was “increased significantly”.
